B1: ZNF449 (parent)
chain: EPHKCPECGKRFLRSSDLYRHQRL
B2: HDAC6 (parent)
chain: YVHHQALLDVKNIAHQNKFGEDMP

Variants of: B1
Test: protein stability index of a GFP-peptide fusion (GPS, HEK-293T) (PSI 1-6); higher = more stable
Settings: c terminus: a fixed tail appended
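Also: lentivirally expressed fusions sorted by FACS into six bins by GFP to DsRed ratio, PSI derived from sequencing read proportions per bin multiplied by bin number.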

| Variant | protein stability index |
| --- | --- |
| EPHKCPECGKRFLRSSDLYRHQKL [R23K] | 4.27 |
| EPHKCPECGKRFLRSSDLYRHQAL [R23A] | 3.74 |
| EPHKCPECGKRFLRSSDLYRHQFL [R23F] | 3.43 |
| EPHKCPECGKRFLRSSDLYRHQQL [R23Q] | 4.43 |
| EPHKCPECGKRFLRSSDLYRHQVL [R23V] | 3.16 |
| EPHKCPECGKRFLRSSDLYRHQHL [R23H] | 3.84 |
| EPHKCPECGKRFLRSSDLYRHQML [R23M] | 3.47 |
| EPHKCPECGKRFLRSSDLYRHQEL [R23E] | 4.47 |
| EPHKCPECGKRFLRSSDLYRHQTL [R23T] | 4.01 |
| EPHKCPECGKRFLRSSDLYRHQIL [R23I] | 3.01 |
| EPHKCPECGKRFLRSSDLYRHQPL [R23P] | 2.98 |
| EPHKCPECGKRFLRSSDLYRHQWL [R23W] | 2.94 |
| EPHKCPECGKRFLRSSDLYRHQLL [R23L] | 3.7 |
| EPHKCPECGKRFLRSSDLYRHQYL [R23Y] | 3.75 |
| EPHKCPECGKRFLRSSDLYRHQGL [R23G] | 3.54 |
| EPHKCPECGKRFLRSSDLYRHQNL [R23N] | 4.4 |
| EPHKCPECGKRFLRSSDLYRHQDL [R23D] | 4.32 |
| EPHKCPECGKRFLRSSDLYRHQSL [R23S] | 4.11 |
| EPHKCPECGKRFLRSSDLYRHQCL [R23C] | 5.02 |
| EPHKCPECGKRFLRSSDLYRHLRL [Q22L] | 3.93 |
| EPHKCPECGKRFLRSSDLYRHTRL [Q22T] | 3.3 |
| EPHKCPECGKRFLRSSDLYRHKRL [Q22K] | 3.28 |
| EPHKCPECGKRFLRSSDLYRHNRL [Q22N] | 3.36 |
| EPHKCPECGKRFLRSSDLYRHYRL [Q22Y] | 3.44 |
| EPHKCPECGKRFLRSSDLYRHIRL [Q22I] | 2.91 |
| EPHKCPECGKRFLRSSDLYRHFRL [Q22F] | 3.14 |
| EPHKCPECGKRFLRSSDLYRHPRL [Q22P] | 2.4 |

| Variant | protein stability index |
| --- | --- |
| EPHKCPECGKRFLRSSDLYRHSRL [Q22S] | 3.16 |
| EPHKCPECGKRFLRSSDLYRHMRL [Q22M] | 3.83 |
| EPHKCPECGKRFLRSSDLYRHWRL [Q22W] | 2.78 |
| EPHKCPECGKRFLRSSDLYRHDRL [Q22D] | 2.39 |
| EPHKCPECGKRFLRSSDLYRHGRL [Q22G] | 2.83 |
| EPHKCPECGKRFLRSSDLYRHARL [Q22A] | 3.04 |
| EPHKCPECGKRFLRSSDLYRHERL [Q22E] | 3.92 |
| EPHKCPECGKRFLRSSDLYRHHRL [Q22H] | 3.27 |
| EPHKCPECGKRFLRSSDLYRHVRL [Q22V] | 3.76 |
| EPHKCPECGKRFLRSSDLYRHCRL [Q22C] | 3.97 |
| EPHKCPECGKRFLRSSDLYRHRRL [Q22R] | 3.84 |
| EPHKCPECGKRFLRSSDLYRHQRQ [L24Q] | 4.6 |
| EPHKCPECGKRFLRSSDLYRHQRV [L24V] | 3.82 |
| EPHKCPECGKRFLRSSDLYRHQRR [L24R] | 3.84 |
| EPHKCPECGKRFLRSSDLYRHQRS [L24S] | 4.4 |
| EPHKCPECGKRFLRSSDLYRHQRC [L24C] | 4.97 |
| EPHKCPECGKRFLRSSDLYRHQRN [L24N] | 4.29 |
| EPHKCPECGKRFLRSSDLYRHQRF [L24F] | 3.23 |
| EPHKCPECGKRFLRSSDLYRHQRH [L24H] | 4.18 |
| EPHKCPECGKRFLRSSDLYRHQRW [L24W] | 3.01 |
| EPHKCPECGKRFLRSSDLYRHQRT [L24T] | 4.06 |
| EPHKCPECGKRFLRSSDLYRHQRD [L24D] | 4.98 |
| EPHKCPECGKRFLRSSDLYRHQRG [L24G] | 4.52 |
| EPHKCPECGKRFLRSSDLYRHQRA [L24A] | 3.83 |
| EPHKCPECGKRFLRSSDLYRHQRP [L24P] | 3.85 |
| EPHKCPECGKRFLRSSDLYRHQRI [L24I] | 3.63 |
| EPHKCPECGKRFLRSSDLYRHQRY [L24Y] | 3.31 |

| Variant | protein stability index |
| --- | --- |
| EPHKCPECGKRFLRSSDLYRHQRM [L24M] | 3.94 |
| EPHKCPECGKRFLRSSDLYRHQRE [L24E] | 4.95 |
| EPHKCPECGKRFLRSSDLYRHQRK [L24K] | 4 |
| EPHKCPECGKRFLRSSDLYVHQRL [R20V] | 4.02 |
| EPHKCPECGKRFLRSSDLYYHQRL [R20Y] | 3.32 |
| EPHKCPECGKRFLRSSDLYTHQRL [R20T] | 4.01 |
| EPHKCPECGKRFLRSSDLYWHQRL [R20W] | 3.6 |
| EPHKCPECGKRFLRSSDLYRMQRL [H21M] | 2 |
| EPHKCPECGKRFLRSSDLYRFQRL [H21F] | 2.25 |
| EPHKCPECGKRFLRSSDLYRAQRL [H21A] | 1.62 |
| EPHKCPECGKRFLRSSDLYRNQRL [H21N] | 2.12 |
| EPHKCPECGKRFLRSSDLYRWQRL [H21W] | 1.29 |
| EPHKCPECGKRFLRSSDLYREQRL [H21E] | 2.15 |
| EPHKCPECGKRFLRSSDLYRPQRL [H21P] | 2.14 |
| EPHKCPECGKRFLRSSDLYRKQRL [H21K] | 2.67 |
| EPHKCPECGKRFLRSSDLYRDQRL [H21D] | 2.79 |
| EPHKCPECGKRFLRSSDLYRSQRL [H21S] | 2 |
| EPHKCPECGKRFLRSSDLYRCQRL [H21C] | 2.15 |
| EPHKCPECGKRFLRSSDLYRIQRL [H21I] | 1.64 |
| EPHKCPECGKRFLRSSDLYRTQRL [H21T] | 2.34 |
| EPHKCPECGKRFLRSSDLYRRQRL [H21R] | 2.07 |
| EPHKCPECGKRFLRSSDLYRVQRL [H21V] | 2.11 |
| EPHKCPECGKRFLRSSDLYRLQRL [H21L] | 2.4 |
| EPHKCPECGKRFLRSSDLYRGQRL [H21G] | 1.84 |
| EPHKCPECGKRFLRSSDLYRQQRL [H21Q] | 1.91 |
| EPHKCPECGKRFLRSSDLYRYQRL [H21Y] | 2.1 |

Variants of: B2
Test: as above
Settings: c terminus: a fixed tail appended

| Variant | protein stability index |
| --- | --- |
| YVHLQALLDVKNIAHQNKFGEDMP [H4L] | 2.2 |
| YVHHQALLDVKNPAHQNKFGEDMP [I13P] | 2.17 |
| YVHHQALLDVKNDAHQNKFGEDMP [I13D] | 2.77 |
| YVHHQPLLDVKNIAHQNKFGEDMP [A6P] | 1.69 |
| YVHHQILLDVKNIAHQNKFGEDMP [A6I] | 3.2 |
| YVHHQAVLDVKNIAHQNKFGEDMP [L7V] | 2.21 |
| YVHHQALLDVKNIAHQNKFGYDMP [E21Y] | 2.15 |
| YVHHQALLDVKSIAHQNKFGEDMP [N12S] | 2.09 |
| NVHHQALLDVKNIAHQNKFGEDMP [Y1N] | 4.39 |
| YVHHQALLDVKNIAHINKFGEDMP [Q16I] | 2.16 |
| YVHHQALLDVKNIAHQNKMGEDMP [F19M] | 2.34 |
| YVHHGALLDVKNIAHQNKFGEDMP [Q5G] | 1.87 |
| YVHHQALLDVKNIMHQNKFGEDMP [A14M] | 1.99 |
| YVHHQALLDVKNIQHQNKFGEDMP [A14Q] | 2.21 |

— the supplement of paper PMC10567573
